# IntAct's records for PubMed 20462492
# B1: Pre-mRNA-processing factor 19 (Saccharomyces cerevisiae), P32523 (parent)
# chain: MLCAISGKVPRRPVLSPKSRTIFEKSLLEQYVKDTGNDPITNEPLSIEEIVEIVPSAQQASLTESTNSATLKANYSIPNLLTSLQNEWDAIMLENFKLRSTLDSLTKKLSTVMYERDAAKLVAAQLLMEKNEDSKDLPKSSQQAVAITREEFLQGLLQSSRDFVARGKLKAPKWPILKNLELLQAQNYSRNIKTFPYKELNKSMYYDKWVCMCRCEDGALHFTQLKDSKTITTITTPNPRTGGEHPAIISRGPCNRLLLLYPGNQITILDSKTNKVLREIEVDSANEIIYMYGHNEVNTEYFIWADNRGTIGFQSYEDDSQYIVHSAKSDVEYSSGVLHKDSLLLALYSPDGILDVYNLSSPDQASSRFPVDEEAKIKEVKFADNGYWMVVECDQTVVCFDLRKDVGTLAYPTYTIPEFKTGTVTYDIDDSGKNMIAYSNESNSLTIYKFDKKTKNWTKDEESALCLQSDTADFTDMDVVCGDGGIAAILKTNDSFNIVALTP
# partner: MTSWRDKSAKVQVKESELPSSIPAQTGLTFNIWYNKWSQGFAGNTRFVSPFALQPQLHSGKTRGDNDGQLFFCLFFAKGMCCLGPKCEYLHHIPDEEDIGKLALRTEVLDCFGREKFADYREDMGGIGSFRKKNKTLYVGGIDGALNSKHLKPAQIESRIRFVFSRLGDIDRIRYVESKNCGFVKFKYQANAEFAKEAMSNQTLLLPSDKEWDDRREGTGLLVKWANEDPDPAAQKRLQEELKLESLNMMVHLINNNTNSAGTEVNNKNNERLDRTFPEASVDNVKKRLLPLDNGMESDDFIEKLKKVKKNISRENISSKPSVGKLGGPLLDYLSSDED
# Variants of: B1
# Conditions: with cwc2_yeast CWC2, Q12046
row,effect of a mutation on the interaction,Variant
1,disrupting interaction,R403A;K404A
2,decreasing interaction,K404A

# Second part, the variant before the results:
row,Variant,effect of a mutation on the interaction
1,D341A,decreasing interaction
2,R403A,disrupting interaction
3,Y387A,decreasing interaction
